# From US12241094B2, “Phenazine degrading agents and related compositions, methods and systems for interfering with viability of bacteria” (priority 2016, dated 2025)
# “Also recorded” adds a separate entry of the source. Like-named read-outs stand apart in the source and are kept apart here.
# B1: PodA30-162: truncated pyocyanin demethylase encoded by MFORT_14352 of Mycobacterium fortuitum lacking N-terminal helix, SEQ ID NO: 2 (protein, listed as Mycobacterium fortuitum)
# chain: MDGRGGRSTTEPVTMTLDVKNDQVAKHDFGKPGMDVGDMDIFSDILSVDGKQVGYDGGACFFTNVTPDNPMTYCELTIHLDAGEIFARSLTPHTLAPFTMAITGGTGEYANSKGELTVSGVATPDEKYELKLTKAENLYFQ
# Tests used:
# [1] = PYO demethylation by purified PodA30-162 and mutants (spectrophotometric/HPLC); assay type: biochemical
# Method: Enzyme activity and analysis. PYO demethylation by PodA30-162 was first determined by HPLC analysis as described previously (6, 9). To detect formaldehyde evolution, 150 nM protein was mixed with 50 μM PYO in 1 mL of 20 mM Tris pH 7.6 amended with 200 μL Nash reagent (2 M ammonium acetate, 50 mM acetic acid, 20 mM acetylacetone) and incubated at 55° C. until the reaction proceeded to completion (37, 38). The products were determined by HPLC using the same method as used for phenazine quantification. To monitor the formation of reduced phenazine, protein and 50 μM PYO were placed into an anaerobic chamber (Coy Laboratory Products) under an atmosphere of H2/N2 (5:95) and left overnight before allowing the reaction to proceed. To generate reduced PYO and 1-OH-PHZ, 50 μM were mixed with 1 mM sodium dithionite. The formation of reduced phenazine products was assayed visually under UV illumination (39). A BioTek Synergy 4 microplate reader (BioTek) plate reader in the anaerobic chamber was used to measure the emission spectrum of products with excitation at 250 nm. To determine the activity of PodA30-162 in the presence of glycerol, salts, or varying pH, 30 nM protein was suspended in 500 μL buffer, 40 μM PYO was mixed with 2× solution containing the buffer of interest (500 μL), and solutions were preheated to 30 C. For pH range measurements, the following buffers were used (40 mM, adjusted with KOH): acetic acid, pH 4.9; MES, pH 5.4 and 5.7; HEPES, pH 6.1; Tris, pH 6.9 and 7.5; Bicine, pH 7.8, 8.3 and 8.7; CHES, pH 9.4. To measure reaction rates, cuvettes containing the 2×PYO solution were placed in a Evolution 260Bio UV-Vis spectrophotometer (Thermo Scientific) and 500 μL of 30 nM protein was added at time 0 (15 nM protein and 20 μM PYO, final concentration). Reaction progress was monitored by measuring absorbance at 313 nm (40) every 0.5 seconds for 5 minutes. To measure kinetic parameters (kcat, Km) 15 nM protein was used in a reaction buffer of Bicine, pH 7.8; reactions were monitored as before with measurements every 0.2 seconds. The rate from the first 10 seconds of the reaction was used for the determination of kinetic parameters. Kinetic parameters were calculated in Microsoft Excel using the Solver plug-in and fitting data to ideal Michaelis-Menton plots with non-linear regression of experimental data (41). For measurements of the rate of methoxy-PMS demethylation, 300 nM protein was used and methoxy-PMS loss from the reaction mixture was monitored at 500 nm wavelength. Methoxy-PMS was purchased from TCI America. For assays with mutant proteins, 60 nM protein was used. The stimulatory effects of flavin or 2-oxoglutarate addition was determined by adding 25 μM flavin or 2-oxoglutarate to 20 μM PYO and 15 nM PodA30-162 and monitoring the reaction. Experiments testing alternative substrates were carried out using 1 mL reaction volumes containing 20 mM Tris (pH 7.6) and 50 μg mL^−1 PodA30-162. Alternative substrates tested were 10-methylphenothiazine (AlfaAesar), phenazine methosulfate (AlfaAesar), methoxyphenazine methosulfate (TCI America), and 4-keto-N-ethylphenazine. 4-keto-N-ethylphenazine was synthesized from phenazine ethosulfate (Sigma-Aldrich) by incubating under fluorescent light overnight followed by purification by HPLC as described (6, 42). As phenazine methosulfate is light sensitive and spontaneously converts to PYO in the presence of light, all reactions were carried out in the dark, and activity was assessed by end point analysis by HPLC after 4 hours (9).
# Pa PA14 biofilm = test: Biofilm biomass by DAPI intensity (Example 7); assay type: cell-based, P. aeruginosa
# Method: In this example, to check for an effect of PodA or 1-OH-PHZ on biofilm development, Pa PA14 was grown in 8-well chambered microscope slides designed for biofilm imaging, as previously reported (Das et al. (2015) Sci Rep. 5:8398). Overnight cultures of Pa PA14 were diluted to a starting optical density of 0.25 and grown directly on the slides (volume of 250 μl per chamber). After 5 h incubation at 37° C., planktonic cells were rinsed from the slide and remaining cells were stained with DAPI. Biofilm biomass was quantified by DAPI intensity on a Leica confocal microscope, with LAS X software. Pa PA14 incubated in the presence of 1 μM PodA or 100 μM 1-OHPHZox had ˜50% the biofilm biomass of Pa PA14 alone (FIG. 20A).
molecule,measurement,setting,value
B1,activity in presence of glycerol or KCl or NaCl salts,"[1]; 20 μM PYO, 15 nM PodA30-162",minimally inhibited
same,pH regime over which enzyme operates,"[1]; 20 μM PYO, 15 nM PodA30-162",4.9-8.7 pH
same,pH above which activity is lost,"[1]; 20 μM PYO, 15 nM PodA30-162, 5 minutes",> 9 pH
same,"activity in presence of flavins (FMN, FAD) or 2-oxoglutarate","[1]; 25 μM, 15 nM PodA30-162",not stimulated
same,activity under anoxic conditions,"[1]; 50 μM PYO, anaerobic chamber",functions under anoxic conditions; also recorded: active
same,salt concentrations over which enzyme operates,[1]; KCl or NaCl,0 to 400 mM
same,kcat,"[1]; PYO substrate, 15 nM protein, Bicine pH 7.8",1.20 ± 0.07 s⁻¹
same,Km,"[1]; PYO substrate, 15 nM protein, Bicine pH 7.8, read-out: Km",< 1 µM
same,Km,"[1]; best fit to Michaelis-Menton plot, 15 nM PodA30-162, PYO detection limit 0.5 μM, read-out: apparent Km",< 1 µM
same,biofilm biomass relative to Pa PA14 alone,"Pa PA14 biofilm; 1 μM PodA or 100 μM 1-OHPHZox, 5 h at 37° C",~50%
same,biofilm formation compared to untreated control,"Pa PA14 biofilm; PodA 1 μM, 1-OH-PHZ 100 μM, total DAPI staining",inhibit biofilm formation
